experiment: soluble on expression in E. coli; label from the status in PepcDB or PDB records

Sequence | soluble on expression in E. coli
MSLSRQIRYYGTGTQKAYDELKQVLPEARILRMDVDTTKRKGAHEKILTKFGRHEADILLGTQMIAKGLDFPNVTLVGVLNADTSLNLPDFRSSERTFQLLTQVAGRAGRANKPGEVLIQTYNPNHYAIQLAREQDYEAFYRYEMRIRKALSYPPYYFTVGLTLSHKDEQEVIKKSYEIVTLIKEGLTDKIKILGPTPKPVARTHNLYHYQIIIKYRFEDQLEIVLNHILDLTQAKENKKLRLIIDHEPQSEGHHHHHH | not soluble
MSLSSVKDFPKIKAIRSFIIGGVGSGGDYHNVKGGHWLIDSDISTPASKWEQYKKSRTSWGINVLGSFLVEIEATDGTVGFATGFGGPPACWLVHQHFERFLIGADPRNTNLLFEQMYRASMFYGRKGLPIAVISVIDLALWDLLGKVRNEPVYRLIGGATKERLDFYCTGPEPTAAKAMGFWGGKVPLPFCPDDGHEGLRKNVEFLRKHREAVGPDFPIMVDCYMSLNVSYTIELVKACLDLNINWWEECLSPDDTDGFALIKRAHPTVKFTTGEHEYSRYGFRKLVEGRNLDIIQPDVMWLGGLTELLKVAALAAAYDVPVVPHASGPYSYHFQISQPNTPFQEYLANSPDGKSVLPVFGDLFIDEPIPTKGYLTTADLDKPGFGLTINPAARAKLIPSDYLFKVPEIPQNLSTGKEIKSNEQPDKPNGTLDSLAAKVESLTTSTSSEGHHHHHH | soluble
MSLSTKDVKELAIEQAKKFGGKLEVCPKVPIETKADLGIAYTPGVAAVSSAIHEKKERAYELTTKKNTVAVISDGSAVLGLGNIGPEAAMPVMEGKAALFKRFAGVDSIPLVLDTQDTEEIIQTVKFLAPTFGGINLEDISAPRCFEIEQRLIDELDIPVFHDDQHGTAIVVLAALYNSLKLINKKIEDIHVVINGGGSAGLSITRKFLAAGVKHIIIVDRAGILSETDTALPPHHAEIAKLTNREHRTGDLATALEGADVFVGVSAPGVLKPEWIQQMNEQPVIFAMANPVPEIFPDEALAAGAYIVGTGRSDFPNQINNVLAFPGIFRGALDARAKKITIEMQIAAAKGIAKLIPDNELTPTNIIPDPFQEGVAKVVAESVRNAVKETNEGHHHHHH | soluble
MSLSTSSKVVRLDVSRSQQEAVKGVKLPALLIKLRDRCGEHNRKLLDRLFEQVDDSFFDLADKSATNSEQALFFDAMREIRLKKERIAALFMQYYNRDFQFLEVQKPGMLKANFDPQNLTLVQEDKLEEQVAIDNMVNRFKSEIGRDLEHLTIRLDSLLFDVSVEEENNPLGPLRMVTNFVTACAELELGIRAKLVFFKLFEKHVLTQNKAVLEAANKFLAEQGVMPDLSASRSVRRTGVNLPHASGSVIDQNTGAVGDYNEGGWDPQIDPLQYMRQFSDAQMAGAAGAAVNLPVVQQTALLNLLSRLQTTNKAPATALSDNGLINFMGLMERAVLSKEGQPRASVGRLDQDVMNLVTMLFEFILDDRQLPAAIRAVIARLQIPILKVALLDRTFFNQGGHSARRLLNEMATASIGWTEKAPGEPDAFLAKLEEVVQRLVTEFDNDITIFDEVLEDFIRFRESDKKRRHLLEQRTRDAEVGRAKSDAAKKVVQDVLNDMLAGKNIPALVMEVLKEGWSNYMVLLQLKSGREHPDWLQAQSVAARLIQGCDPDDTSGEAPEVAAVEKLMEELRVGLQQTAYKPFELDKTLRQLQKVLSETTQQRLAKEVTLDDEGHHHHHH | soluble
MSLSVIDLLKQRVQSAGKKPVIIFPEG | not soluble
MSLSVLNGYQLIISDVDGVIVREGDPIWENIQALRNIQNNGVKIIFVTNNSGFSRILLSRQLSYLGLKVTPDMIITSGLAAAIYMKEKLNVKSVFAVGEEGLIEELKNHGFLVFSSAESERILPDAVVMGLDRLSTYDKLSLAMRCISKGSKFIVTNMDRLWPAKDGLKLGAGALASSIIYALRRDPDFIAGKPNTWIVEIAMRISNVKKLDKILVIGDQIETDIQMGYNIGADTALVLTGISNVDDVDRSNVKPKYVVNTLLDLLEGHHHHHH | soluble
MSLSWRNRIQIFLAPDRVDLTGIARGIRPVQQFRQSGVCVQENDSRQQWKAPLRLLEQMIGQMDDRFRRGSELHITLSNHFVRYGVIAPQPSLANPDELMAYAGFQMREIYGERIDDWELSLSTWDPYGGALCAAIARDLQSELIMFARQYDTRFACIEPYLAAALDHWSKRLVEKQVWFVLVETGRFCLVVLSEGAWRCARNQRVVENLQEELLAALEQESIILSPDRSVERVYVFAPELTGQLPVHDLRWQFVRLPDEKHPAPSYFPGVTGMDDSQNH | not soluble
MSLTAAGRWRDVEMMAYKQDDAAPFRDVTRQLLFSDPRLACEWRYFEVAAGGYSTLEKHDHVHGVMIHRGKGQCLVGHHVSDVAVGDLVFIPPQTWHQFRANAGDVLGFLCLVNAERDREGHHHHHH | not soluble
MSLTADPPACTVPAAGGSSTHKLVNGGADKLIFKIKSSNNNEYRIVPVFGFVDPSGSKDVVITRTAGAPKEDKLVVHFAPAPADATDAQAAFAAVTPAGTVTIPMSATA | not soluble
MSLTAENILNRNFEANKPNQKWFTDISYLNYGKGQKAYISAIIDRYDLSIIVYKVSKRNDLKLVMDILKLALQNNDASNTILHSDRGFQYTSKHYKNYLDTHNVKISMSKAGSCLDNQPIEAFWGTLKSEYYYRNQFSTYEDLETGISEYINYYMNKRYVPKFDGLTPNEYRNVSEGHHHHHH | not soluble
MSLTANREAIDMARVAAGAAAAKLADDVVVIDVSGQLVITDCFVIASGSNERQVNAIVDEVEEKMRQAGYRPARREGAREGRWTLLDYRDIVVHIQHQDDRNFYALDRLWGDCPVVPVDLSANSAGAQEGHHHHHH | soluble
MSLTASQQPTASQDPTRIDALVIGAGFGGMYAVHKLSGMGLSVQGFEAGGDVGGVWYWNRYPGARCDLMSLDYCYSFSPDIEQEWTWSEQFAAQSEILAYANFVADRLDLRRHFLFETWVTGAAYDEAANVWRVTVDDGRVFEATYCVMASGPLSIPKGVPFDGADDFKGEILLAAKWPHTPVSFEGKRVGLVGTGSTGIQIVPEVAKTAGALTVFQRTPSFTLPMRNVTLEPDYVAELKRNYAGIRQVARNSPLGGVRPQSTRPFFSVTPEQRRALMEDSWARGGLSFLGTFSDLLVNPEANEQVAEFVRSKISEVVTDPVTAEKLKPRGYPIFARRPCLDTHYYETFNLPHVKLHDCLESPIVKITPAGLLTETGEVELDVLIFATGYDGLTGALLNFDVVGRGGLQLRDKWRDGAKSHLGLMIASFPNLFLVCGPNGPAALANIITLDQQNIDWIADAITHMRQEGLATIEPTEGAEQGWMDMVYGMAELTLVSKANTWYVGGNISGKPRGLSMYTGGFQRYSEACRLAAEKGYEDFVFEKAATKQGARSEGHHHHHH | soluble
MSLTDIHPPLLLIDTSTRVCSVAVAAAGTIISQRVSHVGNSHAANIGVFVQEVLTEAIGLGVKPSIVALSSGPGSYTGLRIGSSIAKGICFGLGIPLVSVPTLELIAEAARPLSQPDWLICPMIDARRMEVYTALFDSKGKALTDTLPLVIDNDSFSEELKKRNILFVGDGAEKCRPFLSHPNAHFSKNVIYPLALYMLHPALSRIETSSYEDVAYWEPFYLKEFVATVAKNKVIPRTQTTEGHHHHHH | not soluble
MSLTDLFAREPYAPLAERLRPHTLDDVVGQEHLIGEGKPLRVAVEGGKPHSMLLWGPPGVGKTTLARILAQSFNAQFLPVSAVFSGVKDIREAIDKAEIALQQGRATILFVDEVHRFNKAQQDAFLPHVESGLLTFIGATTENPSFEVNPALLSRAQVYVLQPLSSDDLKKLIAKVLALPEYQEFTIETDAQKLLVNTVDGDARRLLNLLEQLLRAADTRRLKNLTAEFLADSLGAQIRRFDKGGESFYNQISALHKSVRGSHPNAALYWFCRMLDGGTDPRYLARRIVRIAWEDIGLADPRALQIANDAAATFERLGSPEGELALAQAVLYLAAAAKSNAGYKAYNQMRHFVKENASDEVPVHLRNAPTKLMKELGYGREYRYAHDEPNAYAAGESYMPDGLDEPDFYQPVPRGLEIKIGEKLAWLKSLDEEVLKAEGHHHHHH | soluble
MSLTEEFVNKEDALKNYNAKEFRTPDGYTSDMILTTVKELNGKPTLHILLIKRSLTNAEGKPNMEGGKWAVPGGFVDENESAEQAAERELEEETSLTDIPLIPFGVFDKPGRDPRGWIISRAFYAIVPPEALEKRAAGDDAAEIGLFPMTEALELPLAFDHLDMLKKAFSAITEEFLLTTAIRDFLPETFSAELLYQTLEGCTKPGILPDEVEFMENIEYLPYLEKVGDLYRFNADAEAGSIYFEGHHHHHH | soluble
MSLTEFLERNAALYGSEKCLTEINLDLQESHNVIWREYELIENNPAGEYRRDMTWKVFDEKANRFANLLIKRGIKKGDKVAILLMNCLEWLPIYFGILKAGAVAVPLNFRYTAEEIKYCLELSDSIALVFGPEFIGRIENIYDQIIPKIKLLLFAGENRPSFAESYDRLTANCPSEAPKVEITDDDDAAIYFSSGTTGFPKAILHAHRSLVSACYTEQKHHGQTREDNFLCIPPLYHTGAKMHWFGSLLSGSKAVLLRGIKPEWILRTVSEEKITIVWLLVPWAQDILDAIERGDVKLEDYDLSQWRLMHIGAQPVPPSLIRRWKKYFPHHLYDTNYGLSESAGPGCVHLGVENIHKVGAIGLPGYNWEAKIVDENGCPVKQGEVGELAVKGPGVMKCYYKDPEATAAVLKDGWLLTGDMARMDEDGFIYLVDRKKDVIISGGENIYPVQIEDFLRSHEAIKDAAVIGLPDKRLGEIAAAIIELKPGFECTEEEINKFCLVLPRYKRPRKIIFDKVPRNPTGKIEKPRLREKYGVVALVEAETEGHHHHHH | soluble
MSLTEILIVEDDDIIATLIERFLLQREYVVCAKVATGEDALYKAAEHLPDLVLMDINLAGKIDGITATKFITAIFHIPVIFLSGQDDETTLERATMAEPASFIIKPFNAKDLYSNIEIALHNDREGHHHHHH | not soluble
MSLTEKKCTVMLSKFKRNKHQQHLAQLPKISQSVDDVDFFYAPADFRETLLEKIASAKQRICIVALYLEQDDGGKGILNALYEAKRQRPELDVRVLVDWHRAQRGRIGAAASNTNADWYCRMAQENPGVDVPVYGVPINTREALGVLHFKGFIIDDSVLYSGASLNDVYLHQHDKYRYDRYHLIRNRKMSDIMFEWVTQNIMNGRGVNRLDDVNRPKSPEIKNDIRLFRQELRDAAYHFQGDADNDQLSVTPLVGLGKSSLLNKTIFHLMPCAEQKLTICTPYFNLPAILVRNIIQLLREGKKVEIIVGDKTANDFYIPEDEPFKIIGALPYLYEINLRRFLSRLQYYVNTDQLVVRLWKDDDNTYHLKGMWVDDKWMLITGNNLNPRAWRLDLENAILIHDPQLELAPQREKELELIREHTTIVKHYRDLQSIADYPVKVRKLIRRLRRIRIDRLISRILEGHHHHHH | not soluble
MSLTEMLSTEDFDFDLPEELIAQTPLKDRASSRLLVVNKETGDMEDKHFHDILDELQPGDALVMNNTRVLPARLYGEKPETGGHLEVLLLTNTEGDTWETLIKPAKRAKVGTEIQFGDGRLKAVVKEELEHGGRIIEFKYDGIFLEILESLGEMPLPPYIKERLDDPDRYQTVYAEENGSAAAPTAGLHFTKELLEEIKAKGVHLVYLTLHVGLGTFRPVSVDNIEEHHMHSEFYRLTEEAAKQLNEVRQAGGRIVAVGTTSIRTLETIGTKFNGEIQADSGWTDIFITPGYQFKVVEAFSTNFHLPKSTLVMLVSAFAGKDLTLAAYQHAIEEKYRFFSFGDAMFIKEGGSHHHHHH | soluble

— the DeepSol protein solubility set
